Reference: publication PMC6100724, “Proteome‐wide analysis of phospho‐regulated PDZ domain interactions” (Molecular Systems Biology, 2018)
Square brackets hold non-standard residues; d marks the D form. Ends that are not written are not given here. * marks the point of attachment. FITC = O=C1OC2(c3ccc(O)cc3Oc3cc(O)ccc32)c2ccc(NC(=S)*)cc21; pS = N[C@@H](COP(=O)(O)O)C(=O)O

T1: FITC-RLTETRL (RPS6KA2 peptide, phosphomimetic at p-3) (human, S730E (stands in the printed letters))
T1 construct: also called phosphomimetic RPS6KA2; source: synthetic peptide, bought: GeneCust
T1 peptide: {FITC}-RLTETRL

T2: FITC-KREFIESNV (TANC1 peptide, phosphomimetic at p-6) (human, Ser to Glu at p-6 (stands in the printed letters))
T2 construct: also called phosphomimetic TANC1; source: synthetic peptide, bought: GeneCust
T2 peptide: {FITC}-KREFIESNV

T3: FITC-KRpSFIESNV (TANC1 peptide, phosphorylated at p-6) (human)
T3 construct: C-terminal peptide of human TANC1; also called TANC1 phosphopeptide; source: synthetic peptide, bought: GeneCust
T3 peptide: {FITC}-KR[pS]FIESNV

T4: FITC-RLTpSTRL (RPS6KA2 peptide, phosphorylated at p-3) (human)
T4 construct: C-terminal peptide of human RPS6KA2; source: synthetic peptide, bought: GeneCust
T4 peptide: {FITC}-RLT[pS]TRL

T5: FITC-HTNETpSL (MCC peptide, phosphorylated at p-1) (human)
T5 construct: C-terminal peptide of human MCC; also called pMCC; source: synthetic peptide, bought: GeneCust
T5 peptide: {FITC}-HTNET[pS]L

B1: DLG1 PDZ2 (His-tagged, aa 311-407) (domain or fragment, human, UniProt Q12959 311-407, looked up)
chain: KPVSEKIMEIKLIKGPKGLGFSIAGGVGNQHIPGDNSIYVTKIIEGGAAHKDGKLQIGDKLLAVNNVCLEEVTHEEAVTALKNTSDFVYLKVAKPTS
notes: human DLG1, PDZ2, aa 311-407, in a modified pRSET vector; also called DLG PDZ2; source: E. coli BL21 Gold (DE3), purified (Ni2+ Sepharose), dialysed
B2: RPS6KA2 peptide MKRLTpSTRL (p-3 phosphorylated) (peptide)
peptide: MKRLT[pS]TRL
notes: C-terminal nine residues of RPS6KA2, human; also called pRPS6KA2; phospho-RPS6KA2; source: synthetic peptide, bought: GeneCust
B3: MKRLTpSTRL (RPS6KA2 peptide, phosphorylated at p-3, unlabelled) (peptide)
peptide: MKRLT[pS]TRL
notes: C-terminal peptide of human RPS6KA2; also called phospho-RPS6KA2; pRPS6KA2; source: synthetic peptide, bought: GeneCust
B4: SHANK1 PDZ (aa 652-761, His-GST tag removed) (domain or fragment, human, UniProt Q9Y566 652-761, looked up)
chain: GPGSDYIIKEKTVLLQKKDSEGFGFVLRGAKAQTPIEEFTPTPAFPALQYLESVDEGGVAWRAGLRMGDFLIEVNGQNVVKVGHRQVVNMIRQGGNTLMVKVVMVTRHPD
notes: human Shank1, PDZ, aa 652-761, in pETM-33; also called untagged SHANK1 PDZ; source: E. coli BL21 Gold (DE3), purified (Ni2+ Sepharose), tag removed with HRV3C protease
B5: Scribble PDZ1 (His-tagged, aa 719-829) (domain or fragment)
chain: not shown
notes: human Scribble, PDZ1, aa 719-829, in pETM-11; Used for MST and ITC; removal of the His tag is told only for the NMR samples; also called Scribble PDZ1 wild type; source: E. coli BL21 Gold (DE3), purified (Ni2+ Sepharose), dialysed
B6: RPS6KA2 peptide MKRLTSTRL (unphosphorylated) (peptide)
peptide: MKRLTSTRL
notes: C-terminal nine residues of RPS6KA2, human; source: synthetic peptide, bought: GeneCust

Experiments:
Settings in all cases: both partners purified
[1] = target: T1, FITC-RLTETRL (RPS6KA2 peptide, …); experiment: MST; FITC-labeled peptide fixed at 25-50 nM, protein (Scribble PDZ1 or DLG1 PDZ2) in a 1:1 dilution series; 50 mM Tris-HCl pH 7.4, 0.1% Tween-20; thermophoresis and T-Jump signal; n = 3
[2] = target: T2, FITC-KREFIESNV (TANC1 peptide, …); experiment: as above
[3] = target: T3, FITC-KRpSFIESNV (TANC1 peptide, …); experiment: as above
[4] = target: T6, Scribble PDZ1 (human, aa 719-829) (human, UniProt Q14160 719-829); experiment: ITC; iTC200, 25°C, 20 mM HEPES pH 7.4; protein 50-100 µM in the cell, 0.64-3 mM peptide in the syringe; single-site fit, stoichiometry fixed to 0.8-1.1; triplicate
T6 construct: Scribble, human, PDZ1, aa 719-829 in pETM-11; The His tag was cleaved only for the NMR samples; nothing is said of cleavage for MST and ITC; also called Scribble PDZ1 wild type; source: E. coli BL21 Gold (DE3), purified (Ni2+ Sepharose)
T6 sequence (Q14160 719-829): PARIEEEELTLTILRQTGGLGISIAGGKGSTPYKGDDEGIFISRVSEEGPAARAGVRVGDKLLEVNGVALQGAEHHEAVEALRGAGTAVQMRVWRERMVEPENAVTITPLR

[5] = target: T7, Scribble PDZ1 A743R (human, UniProt Q14160 719-829, A743R); experiment: as above
T7 construct: Scribble, human, PDZ1, aa 719-829 in pETM-11, with A743R; the text describes A743R only in the R762A background; source: E. coli BL21 Gold (DE3), purified (Ni2+ Sepharose)
T7 sequence (Q14160 719-829 A743R): as the sequence (Q14160 719-829) above, with A25R counted along it

[6] = target: T8, Scribble PDZ1 K746A (human, UniProt Q14160 719-829, K746A); experiment: as above
T8 construct: Scribble, human, PDZ1, aa 719-829 in pETM-11, with K746A; source: E. coli BL21 Gold (DE3), purified (Ni2+ Sepharose)
T8 sequence (Q14160 719-829 K746A): as the sequence (Q14160 719-829) above, with K28A counted along it

[7] = target: T9, Scribble PDZ1 R762A (human, UniProt Q14160 719-829, R762A); experiment: as above
T9 construct: Scribble, human, PDZ1, aa 719-829 in pETM-11, with R762A; source: E. coli BL21 Gold (DE3), purified (Ni2+ Sepharose)
T9 sequence (Q14160 719-829 R762A): as the sequence (Q14160 719-829) above, with R44A counted along it

[8] = target: T10, Scribble PDZ1 R801A (human, UniProt Q14160 719-829, R801A); experiment: as above
T10 construct: Scribble, human, PDZ1, aa 719-829 in pETM-11, with R801A (text, methods and primers); source: E. coli BL21 Gold (DE3), purified (Ni2+ Sepharose)
T10 sequence (Q14160 719-829 R801A): as the sequence (Q14160 719-829) above, with R83A counted along it

[9] = target: T11, Scribble PDZ1 R762A/A743R (human, UniProt Q14160 719-829, A743R | R762A); experiment: as above
T11 construct: Scribble, human, PDZ1, aa 719-829 in pETM-11, with R762A and A743R; also called R762A/A743R mutant; source: E. coli BL21 Gold (DE3), purified (Ni2+ Sepharose)
T11 sequence (Q14160 719-829 A743R/R762A): as the sequence (Q14160 719-829) above, with A25R, R44A counted along it

[10] = target: B5; experiment: ITC; iTC200, 25°C, 20 mM HEPES pH 7.4; protein 50-100 μM in the cell, peptide 0.64-3 mM in the syringe; single-site fit, stoichiometry fixed to 0.8-1.1; n = 3
[11] = target: T12, Scribble PDZ1 R762A (human, UniProt Q14160 719-829, R762A); experiment: as above
T12 construct: human Scribble, PDZ1, aa 719-829, in pETM-11, point mutant; Used for ITC; also called mutational background; source: E. coli BL21 Gold (DE3), purified (Ni2+ Sepharose), dialysed
T12 sequence (Q14160 719-829 R762A): as the sequence (Q14160 719-829) above, with R44A counted along it

[12] = target: T13, Scribble PDZ1 R762A/A743R (human, UniProt Q14160 719-829, R762A | A743R); experiment: as above
T13 construct: human Scribble, PDZ1, aa 719-829, A743R introduced in the background of R762A; also called R762A/A743R mutant; source: E. coli BL21 Gold (DE3), purified (Ni2+ Sepharose), dialysed
T13 sequence (Q14160 719-829 A743R/R762A): as the sequence (Q14160 719-829) above, with A25R, R44A counted along it

[13] = target: T4, FITC-RLTpSTRL (RPS6KA2 peptide, …); experiment: MST; FITC-labeled peptide fixed at 25-50 nM, untagged SHANK1 PDZ in a dilution series; PBS, 10 mM MgCl2, 0.05% Tween-20; n = 3
[14] = target: T5, FITC-HTNETpSL (MCC peptide, …); experiment: MST; FITC-labeled peptide fixed at 25-50 nM, protein (Scribble PDZ1 or DLG1 PDZ2) in a 1:1 dilution series; 50 mM Tris-HCl pH 7.4, 0.1% Tween-20; thermophoresis and T-Jump signal; n = 3
[15] = target: T4, FITC-RLTpSTRL (RPS6KA2 peptide, …); experiment: as above

fold lower affinity than for the unphosphorylated peptide [3]	Kd [4]	Kd [5]	Kd [6]	Kd [7]	Kd [8]	Kd [9]	Binder	also measured
2.9 fold	–	–	–	–	–	–	B1	fold higher affinity than for the unphosphorylated peptide [1]: 1.3 fold; fold lower affinity than for the unphosphorylated peptide [2]: 2.4 fold
–	4 µM	2.8 µM	10 µM	25 µM	17 µM	15 µM	B2	–
–	–	–	–	–	–	–	B3	fold higher affinity than for the unphosphorylated peptide [10]: 5 fold; fold weaker affinity than the wild type [11]: 6 fold; binding result [12]: binds
–	–	–	–	–	–	–	B4	fold lower affinity than for the unphosphorylated peptide [13]: 3.6 fold
2 fold	–	–	–	–	–	–	B5	fold higher affinity than for the unphosphorylated peptide [14]: 3 fold; fold higher affinity than for the unphosphorylated peptide [15]: 5 fold
–	18 µM	15 µM	10 µM	9.7 µM	28 µM	60 µM	B6	–
